This note sets out measurements from patent US20020137703, “Protection-of-telomere-1 (POT-1) protein and encoding polynucleotides” (published 2002).

Data set [1] has as its target T1, SpPot1p (Pot1, full length) (Schizosaccharomyces pombe, UniProt O13988 O13988:1-555).
T1 sequence: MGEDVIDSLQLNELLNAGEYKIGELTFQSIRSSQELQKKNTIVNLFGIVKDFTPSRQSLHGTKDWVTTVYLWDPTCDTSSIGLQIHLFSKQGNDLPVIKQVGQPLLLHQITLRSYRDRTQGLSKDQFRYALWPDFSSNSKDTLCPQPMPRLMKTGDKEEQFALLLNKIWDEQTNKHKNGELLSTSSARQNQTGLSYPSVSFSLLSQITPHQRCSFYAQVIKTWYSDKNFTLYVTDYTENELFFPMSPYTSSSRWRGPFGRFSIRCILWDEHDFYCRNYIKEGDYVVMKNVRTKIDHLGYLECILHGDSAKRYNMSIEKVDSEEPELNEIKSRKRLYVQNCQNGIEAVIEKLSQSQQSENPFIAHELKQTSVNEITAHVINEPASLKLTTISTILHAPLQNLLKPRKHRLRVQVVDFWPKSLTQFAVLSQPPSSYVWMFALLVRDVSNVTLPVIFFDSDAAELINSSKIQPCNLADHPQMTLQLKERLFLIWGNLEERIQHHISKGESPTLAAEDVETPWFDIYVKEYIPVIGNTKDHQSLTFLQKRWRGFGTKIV
As to the kind of experiment: listed as SpPot1p-binding oligonucleotide. The following applies: tags: N-terminal V5 and His6 tags plus pQE30 N-terminal His6; E. coli M15.

The target of data set [2] is T1, SpPot1p (Pot1, full length). Put plainly: EMSA; 25 mM HEPES pH 7.5, 1 mM EDTA, 50 mM NaCl, 5% glycerol, 20 C, PBoli109 competitor. The settings on record: tags: N-terminal V5 and His6 tags plus pQE30 N-terminal His6; E. coli M15; label: 5' 32P. As for the experimental part:
(§1) C-strand ([…]) and G-strand ([…]) were 5′ ³²P-labeled using T4 polynucleotide kinase and γ-³²P-ATP. Duplex DNA was generated by annealing equimolar amounts of radiolabeled C-strand and unlabelled G-strand. Binding reactions (10 μl) were carried out in 25 mM HEPES (pH 7.5), 1 mM EDTA, 50 mM NaCl, 5% glycerol, and 2.5 μM PBoli109 ([…]) as non-specific competitor. Pot1p (50 ng) was incubated with the indicated DNA substrates (1 ng) for 15 min at 20° C. Complexes were analyzed by electrophoresis at 4° C. through a 4-20% TBE gel (Invitrogen) run at 150 V for 80 min. The Pot1p-DNA complex is indicated by an open arrow in FIG. 3A. […] Truncated Pot1p-DNA complex is indicated by a closed arrow.
(In general: In EMSA bound probe runs differently from free probe, usually more slowly.)

The target of data set [3] is T2, SpPot1p N-terminal 22 kDa fragment (Schizosaccharomyces pombe, UniProt O13988 O13988:1-185).
T2 sequence: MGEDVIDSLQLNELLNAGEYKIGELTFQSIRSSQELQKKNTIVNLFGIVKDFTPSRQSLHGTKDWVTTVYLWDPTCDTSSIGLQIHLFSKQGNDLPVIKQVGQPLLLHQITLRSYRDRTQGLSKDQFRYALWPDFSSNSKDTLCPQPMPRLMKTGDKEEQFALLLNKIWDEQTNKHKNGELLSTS
As to the kind of experiment: EMSA; truncated Pot1p-DNA complex seen in mixture with full-length protein. The following applies: tags: N-terminal V5 and His6 tags; present in mixture with full-length protein; label: 5' 32P. As for the experimental part: FIG. 3B: Same as FIG. 3A except that the added protein contained truncated Pot1p as well as full length protein. Truncated Pot1p-DNA complex is indicated by a closed arrow.
as §1

Data set [4] deals with T3, hPot1p (Homo sapiens, UniProt Q9NUX5 Q9NUX5:1-634).
T3 sequence: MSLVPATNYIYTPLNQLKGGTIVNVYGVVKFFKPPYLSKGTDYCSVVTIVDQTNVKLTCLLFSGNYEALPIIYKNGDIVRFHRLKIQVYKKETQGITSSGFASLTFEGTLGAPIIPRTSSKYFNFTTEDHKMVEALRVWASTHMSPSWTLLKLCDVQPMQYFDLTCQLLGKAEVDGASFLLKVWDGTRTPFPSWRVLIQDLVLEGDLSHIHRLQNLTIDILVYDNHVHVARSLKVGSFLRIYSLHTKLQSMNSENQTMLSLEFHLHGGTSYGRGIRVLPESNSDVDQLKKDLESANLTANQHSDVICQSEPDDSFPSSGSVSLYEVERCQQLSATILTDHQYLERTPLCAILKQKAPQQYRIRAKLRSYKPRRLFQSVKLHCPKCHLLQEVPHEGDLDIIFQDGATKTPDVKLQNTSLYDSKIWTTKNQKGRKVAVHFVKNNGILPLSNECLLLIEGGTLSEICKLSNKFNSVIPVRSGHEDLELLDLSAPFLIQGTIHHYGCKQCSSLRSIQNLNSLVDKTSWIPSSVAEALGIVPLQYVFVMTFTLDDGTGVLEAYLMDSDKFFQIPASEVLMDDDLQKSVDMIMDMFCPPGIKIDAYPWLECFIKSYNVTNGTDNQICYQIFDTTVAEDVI
As to the kind of experiment: listed as hPot1p-binding oligonucleotide. The settings on record: tags: N-terminal His6 (pQE30); E. coli.

The target in data set [5] is T3, hPot1p. Put plainly: EMSA; same conditions as SpPot1p. The settings on record: tags: N-terminal His6 (pQE30); E. coli; label: 32P.

As for CTGTAAGCGGTTACGGTTACGAATCTCG (ssDNA) [PBoli188], in data set [1], the binding result is on record as “binds”.
Still for that read-out and setting: for CTGTAAGCATATCATCATTCGAGGTTAC (ssDNA) [PBoli183] the value was “binds”; for CTGTAAGCATATGGTTACTCGAATCTCG (ssDNA) [PBoli187], “binds”; for GGTTACGCATATCATCATTCGAATCTCG (ssDNA) [PBoli184], “binds”.
Regarding CGGTTACACGGTTACAGGT (ssDNA) [PBoli53], in data set [1], the binding result was “binds”.
For the molecule GGTTACAGGTTACAGGTTAC (ssDNA) [PT1], in data set [1], the binding result is “binds”.
For GGTTACACGGTTACAGGTTACAGGTTACAGGGTTACGGTTACG (ssDNA) [S. pombe G-strand (PBoli112)], the binding result in data set [2] and in data set [3] was “binds” in each case.
Turning to GGTTAGGGTTAGGGTTAGGG (ssDNA) [PBoli178], the binding result with hPot1p [4] is on record as “binds”.
Regarding GGTTACACGGTTACAGGTTACAGGTTACAG (ssDNA) [PBoli110], in data set [1], the binding result is “binds”.
For the molecule TGTGGTGTGTGGGTGTGCGGTT (ssDNA) [PBoli86], the binding result in data set [1] was “binds”.
On the same count and under the same terms, for GGTTACGGTTACAGGTTACA (ssDNA) [PBoli52] the value was “binds”.
TTAGGGTTAGGGTTAGGGTT (ssDNA) [PBoli177]: the binding result with hPot1p [4] is reported as “binds”.
For GTTACAGGTTACGGTTACGG (ssDNA) [PBoli54], the binding result in data set [1] is given as “binds”.
The same measure, in the same setting: for CTGTAAGCATATCATCGGTTACGGTTAC (ssDNA) [PBoli185] the value was “binds”.
Take TTAGGGTTAGGGTTAGGGTTAGGGTTAGGG (ssDNA) [human G-strand (TTAGGG)5 (PBoli179)]: the binding result with hPot1p [5] is recorded as “binds”.
GGTTACGGTTACCATCATTCGAATCTCG (ssDNA) [PBoli186]: the binding result in data set [1] was “binds”.
